# Laboratory results reported in patent US20100260668A1 (published 2010).
# T1: PlGF (UniProt P49763-2 21-149, limits assumed)
# T1 construct: Bought antigen coated on the ELISA plate; also called Placental GF; placental growth factor
# T1 sequence (looked up): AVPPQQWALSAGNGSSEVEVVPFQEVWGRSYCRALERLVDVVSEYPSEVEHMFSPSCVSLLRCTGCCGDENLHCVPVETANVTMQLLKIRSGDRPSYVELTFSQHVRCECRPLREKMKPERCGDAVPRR
# Legend:
# [1] = biological target: T2, DLL4 (human, UniProt Q9NR61 27-685); test: flow cytometry on 293G-human DLL4 cells; DLL4 VD C-terminal
# T2 construct: whole, on cells; also called human DLL4
# [2] = biological target: T3, DLL4 ECD/His tag (R&D 1506-D4-050) (UniProt Q9NR61 27-529); test: direct bind ELISA, DLL4 on plate; DLL4 VD N-term.; HC Short, LC Short
# T3 construct: extracellular domain; Bought antigen coated on the ELISA plate; not shown: His tag
# [3] = biological target: T4, human DLL4 extracellular domain (human, UniProt Q9NR61 27-529, biotin label in the Notch-1 competition ELISA (sites not given)); test: competition ELISA: 14 nM biotin-labelled human DLL4 ECD pre-mixed with DVD-Ig, then on coated human Notch-1 (competitor Notch-1)
# T4 construct: extracellular domain; also called biotin labeled human DLL4 extracellular domain
# [4] = biological target: T5, human DLL4 on 293G-human DLL4 cells (human, UniProt Q9NR61 27-685); test: FACS: inhibition of Notch1 binding to 293G-human DLL4 cells (competitor Notch1)
# T5 construct: whole, on cells; no method paragraph describes this FACS assay
# [5] = biological target: T4, human DLL4 extracellular domain; test: cell-based or functional assay
# [6] = biological target: T6, VEGF (biotinylated VEGF; VEGF165) (UniProt P15692-4 27-191, biotinylated (sites not given)); test: competition ELISA: DVD-Ig pre-incubated with 2 nM biotinylated VEGF, then on coated VEGFR1 ECD-Fc (competitor VEGFR1-Fc)
# T6 construct: the method paragraph says only 'biotinylated VEGF'
# T6 sequence (P15692 other isoform, or with tags, fused parts or gaps limits assumed): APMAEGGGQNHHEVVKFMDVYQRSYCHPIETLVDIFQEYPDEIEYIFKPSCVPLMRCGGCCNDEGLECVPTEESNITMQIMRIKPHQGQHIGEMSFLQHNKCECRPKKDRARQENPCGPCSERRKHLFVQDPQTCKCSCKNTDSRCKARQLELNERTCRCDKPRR
# [7] = biological target: T1, PlGF; test: direct bind ELISA, antigen on plate; N-terminal VD
# Description: (§1) Enzyme Linked Immunosorbent Assays to screen for antibodies that bind a desired target antigen were performed as follows. […] Plates were washed four times with PBS containing 0.02% Tween 20. Plates were blocked by the addition of 300 μL/well blocking solution (non-fat dry milk powder, various retail suppliers, diluted to 2% in PBS) for ½ hour at room temperature. Plates were washed four times after blocking with PBS containing 0.02% Tween 20.
# (§2) Plates were washed 4 times with PBS containing 0.02% Tween 20.
# [8] = biological target: T7, VEGF (UniProt P15692 27-191, limits assumed); test: direct bind ELISA, antigen on plate; C-terminal VD
# T7 construct: Bought antigen coated on the ELISA plate; also called vascular endothelial growth factor
# T7 sequence (P15692 other isoform, or with tags, fused parts or gaps limits assumed): as above
# Description: as §1, §2
Binder,IC50 [3] [nM],IC50 [4] [nM],"DVD-Ig Inhibition of sFlt1 (IC50, nM) [5] [nM]",IC50 [6] [nM],EC50 [7] [nM],EC50 [8] [nM],other results
"DVD474 (bispecific antibody, human IgG1, kappa, DVD-Ig; outer AB071 (VEGF), inner AB015 (DLL4); also called VEGF and DLL4 DVD-Ig, HC linker long, LC linker long) heavy: not shown light: DIQMTQSPSSLSASVGDRVTITCRASQVIRRSLAWYQQKPGKAPKLLIYAASNLASGVPSRFSGSGSGTDFTLTISSLQPEDFATYYCQQSNTSPLTFGQGTKVEIKRTVAAPSVFIFPPDIQMTQSPSSLSASVGDRVTITCRASQDVSTAVAWYQQKPGKAPKLLIYSASFLYSGVPSRFSGSGSGTDFTLTISSLQPEDFATTYYCQQSYTGTVTFGQGTKVEIKRTVAAPSVFIFPPSDEQLKSGTASVVCLLNNFYPREAKVQWKVDNALQSGNSQESVTEQDSKDSTYSLSSTLTLSKADYEKHKVYACEVTHQGLSSPVTKSFNRGEC",,,,,,,EC50 [1]: 2.19 nM
"DVD486 (bispecific antibody, human IgG1, kappa, DVD-Ig; outer AB071 (VEGF), inner AB015 (DLL4); also called VEGF and DLL4 DVD-Ig, HC linker short, LC linker long) heavy: not shown light: DIQMTQSPSSLSASVGDRVTITCRASQVIRRSLAWYQQKPGKAPKLLIYAASNLASGVPSRFSGSGSGTDFTLTISSLQPEDFATYYCQQSNTSPLTFGQGTKVEIKRTVAAPSVFIFPPDIQMTQSPSSLSASVGDRVTITCRASQDVSTAVAWYQQKPGKAPKLLIYSASFLYSGVPSRFSGSGSGTDFTLTISSLQPEDFATTYYCQQSYTGTVTFGQGTKVEIKRTVAAPSVFIFPPSDEQLKSGTASVVCLLNNFYPREAKVQWKVDNALQSGNSQESVTEQDSKDSTYSLSSTLTLSKADYEKHKVYACEVTHQGLSSPVTKSFNRGEC",,,,,,,EC50 [1]: 2.09 nM
"DVD467 (bispecific antibody, human IgG1, kappa, DVD-Ig; outer AB015 (DLL4), inner AB071 (VEGF); HC short, LC short linker; also called DVD467H; DVD467L) heavy: not shown light: DIQMTQSPSSLSASVGDRVTITCRASQDVSTAVAWYQQKPGKAPKLLIYSASFLYSGVPSRFSGSGSGTDFTLTISSLQPEDFATTYYCQQSYTGTVTFGQGTKVEIKRTVAAPDIQMTQSPSSLSASVGDRVTITCRASQVIRRSLAWYQQKPGKAPKLLIYAASNLASGVPSRFSGSGSGTDFTLTISSLQPEDFATYYCQQSNTSPLTFGQGTKVEIKRTVAAPSVFIFPPSDEQLKSGTASVVCLLNNFYPREAKVQWKVDNALQSGNSQESVTEQDSKDSTYSLSSTLTLSKADYEKHKVYACEVTHQGLSSPVTKSFNRGEC",,,,,,,EC50 [2]: 0.54 nM
"DVD470 (VEGF (seq. 1) N-terminal / DLL4 (seq. 1) C-terminal DVD-Ig, long HC linker, long LC linker) (bispecific antibody, human IgG1, kappa, also called DVD470H/DVD470L) heavy: not shown light: DIQMTQSPSSLSASVGDRVTITCSASQDISNYLNWYQQKPGKAPKVLIYFTSSLHSGVPSRFSGSGSGTDFTLTISSLQPEDFATYYCQQYSTVPWTFGQGTKVEIKRTVAAPSVFIFPPDIQMTQSPSSLSASVGDRVTITCRASQDVSTAVAWYQQKPGKAPKLLIYSASFLYSGVPSRFSGSGSGTDFTLTISSLQPEDFATTYYCQQSYTGTVTFGQGTKVEIKRTVAAPSVFIFPPSDEQLKSGTASVVCLLNNFYPREAKVQWKVDNALQSGNSQESVTEQDSKDSTYSLSSTLTLSKADYEKHKVYACEVTHQGLSSPVTKSFNRGEC",2.82,38.3,1.02,2.7,,,
"DVD515 (bispecific antibody, human IgG1, kappa, DVD-Ig; outer AB073 (DLL4), inner AB071 (VEGF); HC short, LC short linker; also called DVD515H; DVD515L) heavy: not shown light: QAVVTQESALTTSPGETVTLTCRSSTGAVTTSNYANWVQEKPDHLFTGLIGGTNNRAPGVPARFSGSLIGDKAALTITGAQTEDEAIYFCALWYSNHWVFGGGTKLTVLGQPKAAPDIQMTQSPSSLSASVGDRVTITCRASQVIRRSLAWYQQKPGKAPKLLIYAASNLASGVPSRFSGSGSGTDFTLTISSLQPEDFATYYCQQSNTSPLTFGQGTKVEIKRTVAAPSVFIFPPSDEQLKSGTASVVCLLNNFYPREAKVQWKVDNALQSGNSQESVTEQDSKDSTYSLSSTLTLSKADYEKHKVYACEVTHQGLSSPVTKSFNRGEC",,,,,,,EC50 [2]: 0.2 nM
"DVD471 (DLL4 (seq. 1) N-terminal / VEGF (AB070) C-terminal DVD-Ig, long HC linker, long LC linker) (bispecific antibody, human IgG1, kappa, L234A L235A, also called DVD471H/DVD471L) heavy: not shown light: DIQMTQSPSSLSASVGDRVTITCRASQDVSTAVAWYQQKPGKAPKLLIYSASFLYSGVPSRFSGSGSGTDFTLTISSLQPEDFATTYYCQQSYTGTVTFGQGTKVEIKRTVAAPSVFIFPPDIQMTQSPSSLSASVGDRVTITCRASQDVSTAVAWYQQKPGKAPKLLIYSASFLYSGVPSRFSGSGSGTDFTLTISSLQPEDFATYYCQQSYTTPPTFGQGTKVEIKRTVAAPSVFIFPPSDEQLKSGTASVVCLLNNFYPREAKVQWKVDNALQSGNSQESVTEQDSKDSTYSLSSTLTLSKADYEKHKVYACEVTHQGLSSPVTKSFNRGEC",2.66,4.1,1.92,5.46,,,
"DVD445 (bispecific antibody, human IgG1, kappa, DVD-Ig; outer AB069 (DLL4), inner AB071 (VEGF); HC short, LC short linker; also called DVD445H; DVD445L) heavy: not shown light: DIVMTQSPDSLAVSLGERATISCRASESVDNYGISFMKWFQQKPGQPPKLLIYAASNQGSGVPDRFSGSGSGTDFTLTISSLQAEDVAVYYCQQSKEVPWTFGGGTKVEIKRTVAAPDIQMTQSPSSLSASVGDRVTITCRASQVIRRSLAWYQQKPGKAPKLLIYAASNLASGVPSRFSGSGSGTDFTLTISSLQPEDFATYYCQQSNTSPLTFGQGTKVEIKRTVAAPSVFIFPPSDEQLKSGTASVVCLLNNFYPREAKVQWKVDNALQSGNSQESVTEQDSKDSTYSLSSTLTLSKADYEKHKVYACEVTHQGLSSPVTKSFNRGEC",,,,,,,EC50 [2]: 0.17 nM

# The next lines start with results.
IC50 [3] [nM],IC50 [4] [nM],"DVD-Ig Inhibition of sFlt1 (IC50, nM) [5] [nM]",IC50 [6] [nM],EC50 [7] [nM],EC50 [8] [nM],Binder,other results
2.65,16.3,1.11,1.7,,,"DVD482 (VEGF (seq. 1) N-terminal / DLL4 (seq. 1) C-terminal DVD-Ig, short HC linker, long LC linker) (bispecific antibody, human IgG1, kappa, also called DVD482H/DVD482L) heavy: not shown light: DIQMTQSPSSLSASVGDRVTITCSASQDISNYLNWYQQKPGKAPKVLIYFTSSLHSGVPSRFSGSGSGTDFTLTISSLQPEDFATYYCQQYSTVPWTFGQGTKVEIKRTVAAPSVFIFPPDIQMTQSPSSLSASVGDRVTITCRASQDVSTAVAWYQQKPGKAPKLLIYSASFLYSGVPSRFSGSGSGTDFTLTISSLQPEDFATTYYCQQSYTGTVTFGQGTKVEIKRTVAAPSVFIFPPSDEQLKSGTASVVCLLNNFYPREAKVQWKVDNALQSGNSQESVTEQDSKDSTYSLSSTLTLSKADYEKHKVYACEVTHQGLSSPVTKSFNRGEC",
,,,,0.17,31.1,"DVD597 (bispecific antibody, human IgG1, kappa, HC linker short, LC linker long; also called DVD597VH; DVD597VL) heavy: not shown light: DIVLTQSPDSLAVSLGERVTMNCKSSQSLLNSGMRKSFLAWYQQKPGQSPKLLIYWASTRESGVPDRFTGSGSGTDFTLTISSVQAEDVAVYYCKQSYHLFTFGSGTKLEIKRTVAAPSVFIFPPDIQMTQSPSSLSASVGDRVTITCRASQDVSTAVAWYQQKPGKAPKLLIYSASFLYSGVPSRFSGSGSGTDFTLTISSLQPEDFATYYCQQSYTTPPTFGQGTKVEIKRTVAAPSVFIFPPSDEQLKSGTASVVCLLNNFYPREAKVQWKVDNALQSGNSQESVTEQDSKDSTYSLSSTLTLSKADYEKHKVYACEVTHQGLSSPVTKSFNRGEC",
,,,,0.13,1170,"DVD591 (bispecific antibody, human IgG1, kappa, DVD-Ig, N-terminal PlGF (AB047), C-terminal VEGF (AB071); HC linker long, LC linker short; also called DVD591VH; DVD591VL) heavy: not shown light: DIVLTQSPDSLAVSLGERVTMNCKSSQSLLNSGMRKSFLAWYQQKPGQSPKLLIYWASTRESGVPDRFTGSGSGTDFTLTISSVQAEDVAVYYCKQSYHLFTFGSGTKLEIKRTVAAPDIQMTQSPSSLSASVGDRVTITCRASQVIRRSLAWYQQKPGKAPKLLIYAASNLASGVPSRFSGSGSGTDFTLTISSLQPEDFATYYCQQSNTSPLTFGQGTKVEIKRTVAAPSVFIFPPSDEQLKSGTASVVCLLNNFYPREAKVQWKVDNALQSGNSQESVTEQDSKDSTYSLSSTLTLSKADYEKHKVYACEVTHQGLSSPVTKSFNRGEC",
4.9,15.1,1.68,2.4,,,"DVD476 (VEGF (seq. 1) N-terminal / DLL4 (seq. 1) C-terminal DVD-Ig, long HC linker, short LC linker) (bispecific antibody, human IgG1, kappa, also called DVD476H/DVD476L) heavy: not shown light: DIQMTQSPSSLSASVGDRVTITCSASQDISNYLNWYQQKPGKAPKVLIYFTSSLHSGVPSRFSGSGSGTDFTLTISSLQPEDFATYYCQQYSTVPWTFGQGTKVEIKRTVAAPDIQMTQSPSSLSASVGDRVTITCRASQDVSTAVAWYQQKPGKAPKLLIYSASFLYSGVPSRFSGSGSGTDFTLTISSLQPEDFATTYYCQQSYTGTVTFGQGTKVEIKRTVAAPSVFIFPPSDEQLKSGTASVVCLLNNFYPREAKVQWKVDNALQSGNSQESVTEQDSKDSTYSLSSTLTLSKADYEKHKVYACEVTHQGLSSPVTKSFNRGEC",
,,,,0.12,1360,"DVD589 (bispecific antibody, human IgG1, kappa, HC linker long, LC linker short; also called DVD589VH; DVD589VL) heavy: not shown light: DIVLTQSPDSLAVSLGERVTMNCKSSQSLLNSGMRKSFLAWYQQKPGQSPKLLIYWASTRESGVPDRFTGSGSGTDFTLTISSVQAEDVAVYYCKQSYHLFTFGSGTKLEIKRTVAAPDIQMTQSPSSLSASVGDRVTITCRASQDVSTAVAWYQQKPGKAPKLLIYSASFLYSGVPSRFSGSGSGTDFTLTISSLQPEDFATYYCQQSYTTPPTFGQGTKVEIKRTVAAPSVFIFPPSDEQLKSGTASVVCLLNNFYPREAKVQWKVDNALQSGNSQESVTEQDSKDSTYSLSSTLTLSKADYEKHKVYACEVTHQGLSSPVTKSFNRGEC",
,,,,0.23,664,"DVD599 (bispecific antibody, human IgG1, kappa, DVD-Ig, N-terminal PlGF (AB047), C-terminal VEGF (AB071); HC linker short, LC linker long; also called DVD599VH; DVD599VL) heavy: not shown light: DIVLTQSPDSLAVSLGERVTMNCKSSQSLLNSGMRKSFLAWYQQKPGQSPKLLIYWASTRESGVPDRFTGSGSGTDFTLTISSVQAEDVAVYYCKQSYHLFTFGSGTKLEIKRTVAAPSVFIFPPDIQMTQSPSSLSASVGDRVTITCRASQVIRRSLAWYQQKPGKAPKLLIYAASNLASGVPSRFSGSGSGTDFTLTISSLQPEDFATYYCQQSNTSPLTFGQGTKVEIKRTVAAPSVFIFPPSDEQLKSGTASVVCLLNNFYPREAKVQWKVDNALQSGNSQESVTEQDSKDSTYSLSSTLTLSKADYEKHKVYACEVTHQGLSSPVTKSFNRGEC",
